Publication PMC4010901 (The Journal of Experimental Medicine, 2014)
Where two headings read alike, the source gives them in different places.

Legend:
[1] = molecular target: T1, recombinant mRGMb-HIS (R&D Systems) (mouse, UniProt Q7TQ33 49-415); experiment: ELISA
T1 sequence (looked up): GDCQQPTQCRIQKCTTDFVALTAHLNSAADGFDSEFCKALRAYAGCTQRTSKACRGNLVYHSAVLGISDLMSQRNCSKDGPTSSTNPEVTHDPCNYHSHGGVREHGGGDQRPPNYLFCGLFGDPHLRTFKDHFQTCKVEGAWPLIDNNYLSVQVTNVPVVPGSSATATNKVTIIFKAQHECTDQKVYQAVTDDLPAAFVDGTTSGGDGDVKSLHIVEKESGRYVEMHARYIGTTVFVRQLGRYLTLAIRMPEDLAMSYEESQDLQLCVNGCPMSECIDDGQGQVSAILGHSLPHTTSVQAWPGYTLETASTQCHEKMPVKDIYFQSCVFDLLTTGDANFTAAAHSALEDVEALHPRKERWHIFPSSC

[2] = molecular target: T2, recombinant hRGMb-HIS (R&D Systems) (human, UniProt Q6NW40 46-413); experiment: ELISA
T2 sequence (looked up): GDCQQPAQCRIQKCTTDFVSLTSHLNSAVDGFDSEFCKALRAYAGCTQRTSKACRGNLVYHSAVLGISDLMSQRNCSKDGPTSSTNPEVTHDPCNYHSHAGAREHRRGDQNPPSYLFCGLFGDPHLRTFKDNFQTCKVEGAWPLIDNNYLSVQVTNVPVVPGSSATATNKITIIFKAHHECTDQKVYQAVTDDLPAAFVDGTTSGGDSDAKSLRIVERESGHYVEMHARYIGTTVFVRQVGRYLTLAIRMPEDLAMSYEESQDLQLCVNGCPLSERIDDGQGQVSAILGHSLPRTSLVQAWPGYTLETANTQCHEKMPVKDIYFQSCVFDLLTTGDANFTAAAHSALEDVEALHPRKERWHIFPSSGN

[3] = molecular target: T1, recombinant mRGMb-HIS (R&D Systems); experiment: ELISA; remark: listed apart in the source
[4] = molecular target: T1, recombinant mRGMb-HIS (R&D Systems); experiment: ELISA; remark: listed apart in the source
[5] = molecular target: T2, recombinant hRGMb-HIS (R&D Systems); experiment: ELISA; remark: listed apart in the source
[6] = molecular target: T3, RGMb (R&D Systems) immobilised for Biacore ( (mouse and human RGMb-HIS …, UniProt Q7TQ33 49-415)); experiment: SPR
T3 sequence (looked up): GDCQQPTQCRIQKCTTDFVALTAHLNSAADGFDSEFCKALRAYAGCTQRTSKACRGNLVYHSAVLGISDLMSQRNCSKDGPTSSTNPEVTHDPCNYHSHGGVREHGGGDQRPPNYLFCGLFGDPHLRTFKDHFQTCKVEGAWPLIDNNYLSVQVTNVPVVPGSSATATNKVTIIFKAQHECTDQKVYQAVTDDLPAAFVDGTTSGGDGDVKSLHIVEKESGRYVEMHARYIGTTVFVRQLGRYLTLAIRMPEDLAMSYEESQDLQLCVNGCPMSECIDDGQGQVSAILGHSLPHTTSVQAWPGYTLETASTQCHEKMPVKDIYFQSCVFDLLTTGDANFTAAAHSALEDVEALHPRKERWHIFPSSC

B1: recombinant mouse BMP-2 (Invitrogen) (ligand, UniProt P21274 281-394, looked up)
chain: QAKHKQRKRLKSSCKRHPLYVDFSDVGWNDWIVAPPGYHAFYCHGECPFPLADHLNSTNHAIVQTLVNSVNSKIPKACCVPTELSAISMLYLDENEKVVLKNYQDMVVEGCGCR
B1: binds [1].

B2: hPD-L2-mIgG2a fusion protein (Fc fusion, human, UniProt Q9BQ51 20-220, looked up)
chain: LFTVTVPKELYIIEHGSNVTLECNFDTGSHVNLGAITASLQKVENDTSPHRERATLLEEQLPLGKASFHIPQVQVRDEGQYQCIIIYGVAWDYKYLTLKVKASYRKINTHILKVPETDEVELTCQATGYPLAEVSWPNVSVPANTSHSRTPEGLYQVTSVLRLKPPPGRNFSCVFWNTHVRELTLASIDLQSQMEPRTHPT
B2: binds [2]; binds [3].

B3: recombinant mouse BMP-4 (R&D Systems) (ligand, UniProt P21275 293-408, looked up)
chain: SPKHHPQRSRKKNKNCRRHSLYVDFSDVGWNDWIVAPPGYQAFYCHGDCPFPLADHLNSTNHAIVQTLVNSVNSSIPKACCVPTELSAISMLYLDEYDKVVLKNYQEMVVEGCGCR
B3: binds [4].

B4: mPD-L2-hIgG1/IgA fusion protein (Fc fusion, mouse, UniProt Q9WUL5 20-221, looked up)
chain: LFTVTAPKEVYTVDVGSSVSLECDFDRRECTELEGIRASLQKVENDTSLQSERATLLEEQLPLGKALFHIPSVQVRDSGQYRCLVICGAAWDYKYLTVKVKASYMRIDTRILEVPGTGEVQLTCQARGYPLAEVSWQNVSVPANTSHIRTPEGLYQVTSVLRLKPQPSRNFSCMFWNAHMKELTSAIIDPLSRMEPKVPRTW
B4: binds [5].

B5: mPD-L2-hIgG (R&D Systems) (Fc fusion, mouse, UniProt Q9WUL5 20-221, looked up)
chain: LFTVTAPKEVYTVDVGSSVSLECDFDRRECTELEGIRASLQKVENDTSLQSERATLLEEQLPLGKALFHIPSVQVRDSGQYRCLVICGAAWDYKYLTVKVKASYMRIDTRILEVPGTGEVQLTCQARGYPLAEVSWQNVSVPANTSHIRTPEGLYQVTSVLRLKPQPSRNFSCMFWNAHMKELTSAIIDPLSRMEPKVPRTW
Binder B5 has a Kd [6] of 48.5 nM.
